Here are results for two molecules from patent US20200003757A1, “METHOD OF IDENTIFYING AGENTS THAT AFFECT MATURATION, SURVIVAL AND MYELINATION” (KADIMASTEM, LTD., priority 2011, published 2020).

The test system of one data set is hES-OPC. Nature of the data set: Differentiation assay; dose response of Noggin on hES-OPC (O4/DAPI staining, Cellomics neuronal profiling). It counts as cell-based, human. As to the method:
5000 hES-OPC were seeded in each well of Matrigel and PDL-coated 96 well black clear plates (CI-3603, Corning). The medium used for the experiment comprised DMEM/F12 with 0.5% (v/v) N2 supplement (Invitrogen), 1% (v/v) B27 supplement, Glutamax and 100 U/ml penicillin and 100 μg/ml streptomycin (Biological Industries, IL). The cells were deprived from growth factors 24 hours prior to seeding. 12 hours following seeding, increasing doses of Noggin (Preprotech, Israel) were supplemented to the media for the ten days of differentiation. The Noggin doses ranged between 15 nM to 0.015 nM (450 ng/ml to 0.45 ng/ml) with 3.16 fold dilutions (square root of 10) in the presence of 0.1% DMSO and 50 μg/ml Vitamin C. Samples without Noggin in the presence of 0.1% DMSO and 50 μg/ml Vitamin C served as negative control. The media was changed every other day by replenishing ⅔ of the media. On day ten, the wells were fixed using 4% paraformaldehyde (PFA) for further O4 and Dapi staining.
Cells were fixed using 4% paraformaldehyde (PFA), washed with PBS and kept at 4° C. before staining. Non-specific staining was blocked with normal goat serum (5% w/v in PBS) for 30 minutes at RT. Primary mouse monoclonal (mMc) and rabbit polyclonal antibodies, diluted in 1% goat serum, were as described in Table 2, herein below. All staining was followed by the nuclear fluorescent dye DAPI (Sigma, 0.05 μg/ml). All coverslips were mounted in Mowiol (Calbiochem, La Jolla, Calif.). An Olympus IX-70 FLA microscope with a DVC-1310C digital camera (DVC, Austin, Tex.) was used and images processed with Photoshop and analyzed with Image-Pro-Plus software (Media Cybernetics, Silver Spring, Md.) to measure Integrated Optic Density (IOD) of color-specific pixels and MBP positive fiber length. […]
BMP signaling negatively regulates oligodendrocyte lineage development, and it has been shown that Noggin, an inhibitor of BMP signaling, promotes the differentiation of ES-derived oligodendrocytes. As a proof of concept that effects of drugs on oligodendrocyte differentiation can be quantified, the inventors searched for the optimal concentration of Noggin to be used to promote differentiation. […] Nuclear DNA staining with DAPI was used to quantify the cell number per field, and oligodendrocytes were characterized by staining with O4. […] Similarly, O4 positive processes (green) were counted and measured only if attached to O4 cell body. Places where one process becomes two were counted as branch point (FIGS. 3D-E, yellow circles). The numbers of processes, their lengths, and the number of branch points per O4 positive cell body were counted. […] Thus, it may be concluded that the present assay is capable of quantifying the effect of Noggin. […]

The test system of another data set is human oligodendrocytes. Nature of the data set: Human oligodendrocytes and hESC-OPC survival assay (dead cell labeling and O4 labeling). The data set is classed as cell-based. The settings on record: 14 days in culture. On the procedure:
In order to evaluate the survival of human oligodendrocytes or its progenitor cells in culture, a specific dead cell labeling (Live/dead viability/cytotoxicity kit for mammalian cells, Invitrogen, molecular probes, L3223) was used. A culture of differentiated oligodendrocytes and oligodendrocytes progenitor culture sorted by O4+ or CD140+ MACS sorting respectively were obtained. The effect of recombinant human IFN-Y (R&D systems, Biotest, 285-IF-100) was tested on oligodendrocytes survival. Following 14 days in culture the cells were labeled with dead cell labeling (Ethidium heterodimer 1-red labeling) and O4 labeling (green). […] Such an assay gives complementary results on the effect of tested compound on oligodendrocytes survival.

In general, EC50 refers to the midpoint of the concentration-response curve.

B1: Noggin: an inhibitor of BMP signaling (Preprotech, Israel) (protein, UniProt Q13253 28-232, looked up)
Noggin: QHYLHIRPAPSDNLPLVDLIEHPDPIFDPKEKDLNETLLRSLLGGHYDPGFMATSPPEDRPGGGGGAAGGAEDLAELDQLLRQRPSGAMPSEIKGLEFSEGLAQGKKQRLSKKLRRKLQMWLWSQTFCPVLYAWNDLGSRFWPRYVKVGSCFSKRSCSVPEGMVCKPSKSVHLTVLRWRCQRRGGQRCGWIPIQYPIISECKCSC
Take B1: the “morphology of O4 positive OLs versus absence of Noggin” value in the data set with hES-OPC (Noggin added after growth factor removal, FIGS. 3A-C) was “stimulates the emergence of OLs with longer and multiple processes”. In addition, the “number of O4 positive cell per well” value in the data set on hES-OPC (ten days differentiation with noggin treatment) is given as “not changed”. Besides, the “process numbers per cell, total process length per well, number of branch points per cell” value in the data set on hES-OPC (ten days differentiation, O4 positive cells, serial dilutions of Noggin) is given as “correlated with Noggin concentration”. Further, the EC50 in the data set with hES-OPC (ten days without growth factors, O4 staining, triplicate, FIG. 3F, read-out: EC50 (50% of the maximal effect), curve generated by integrating process numbers per cell, total process length per well and number of branch points per cell) came out at 0.157 nM.

B2: IFN-Y: recombinant human IFN-Y (R&D systems, Biotest, 285-IF-100) (protein, UniProt P01579 24-161, looked up)
Interferon gamma: QDPYVKEAENLKKYFNAGHSDVADNGTLFLGILKNWKEESDRKIMQSQIVSFYFKLFKNFKDDQSIQKSVETIKEDMNVKFFNSNKKKRDDFEKLTNYSVTDLNVQRKAIHELIQVMAELSPAAKTGKRKRSQMLFRG
With B2, the “percentage of dead cells” value in the data set with human oligodendrocytes (Ethidium heterodimer 1 labeling, FIG. 12E) is recorded as “increased the percentage of dead cells”. In the data set with human oligodendrocytes (O4 labeling, FIG. 12F), the “number of differentiated oligodendrocytes (O4+ cells)” value was “decreased the number of differentiated oligodendrocytes”.
